Numbering of substitutions follows the chain as printed. “And” between values parts separate entries of the source, which are not always exact repeats. Equal entries are not always repeated.
B1: MOR04975 IgG4-Pro (antibody, V domains shown)
VH: QVQLVESGGGLVQPGGSLRLSCAASGFTFSSYGMSWVRQAPGKGLEWVSGIRAKQSGYATDYAAPVKGRFTISRDNSKNTLYLGMNSLRAEDTAVYYCARGLGDYGHHHGLSGIFDYWGQGTLVTVSS
VL: DIQMTQSPSSLSASVGDNVTITCRASQGISSNLNWYQQKPGKAPKLLIYAASNLQSGPSRFSGSGSGTDFTLTISSLQPEDFATYYCQQYEFGIQTFGQGTKVEIKR
B2: MOR04977 IgG4-Pro (antibody, V domains shown)
VH: B1 VH with G50F, R52E, A53P, Q55W, S56R, Y58G, D61H, P65S, G84Q
VL: B1 VL with N18R, E91S, F92S, G93N, I94P
B3: MOR04974 IgG4-Pro (antibody, V domains shown)
VH: B1 VH
VL: B1 VL with Q6G, N18R, E91A, F92S, G93P, I94R
B4: MOR04624 Fab (Fab, V domains shown)
VH: QVQLVESGGGLVQPGGSLRLSCAASGFTFSSYGMSWVRQAPGKGLEWVSSISYSDSNTYYADSVKGRFTISRDNSKNTLYLQMNSLRAEDTAVYYCARGLGDYGHHHGLSGIFDYWGQGTLVTVSS
VL: B1 VL with N18R, T84V, E91S, F92D, G93Q, I94S, Q95Y
notes: HuCAL GOLD monovalent Fab, kappa
B5: MOR04974 Fab (Fab, V domains shown)
VH: B1 VH with G84Q
VL: B1 VL with N18R, E91A, F92S, G93P, I94R
B6: MOR04977 Fab (Fab, V domains shown)
VH: B1 VH with G50F, R52E, A53P, Q55W, S56R, Y58G, D61H, P65S, G84Q
VL: B1 VL with N18R, E91S, F92S, G93N, I94P
B7: MOR04985 Fab (Fab, V domains shown)
VH: B1 VH with G84Q
VL: B1 VL with N18R, T84V, E91S, F92D, G93Q, I94S, Q95Y
B8: MOR04975 Fab (Fab, V domains shown)
VH: B1 VH with G84Q
VL: B1 VL with N18R
notes: also called MQR04975
B9: MOR04971 Fab (Fab, V domains shown)
VH: QVQLVESGGGLVQPGGSLRLSCAASGFTFSNYAMNWVRQAPGKGLEWVSAIHDNGHTYYPDSVKGRFTISRDNSKNTLYLQMNSLRAEDTAVYYCAREGEFGFMYSTLVFDSWGQGTLVTVSS
VL: DIELTQPPSVSVAPGQTARISCSGDSIGEQYAHWYQQKPGQAPVLVIYDDNKRPSGIPERFSGSNSGNTATLTISGTQAEDEADYYCSSYTYSSDASVFGGGTKLTVLG
B10: MOR04974 IgG1 (antibody, V domains shown)
VH: B1 VH with G84Q
VL: B1 VL with N18R, E91A, F92S, G93P, I94R
notes: also called IgG1 MOR04974
B11: MOR04985 IgG1 (antibody, V domains shown)
VH: B1 VH with G84Q
VL: B1 VL with N18R, T84V, E91S, F92D, G93Q, I94S, Q95Y
B12: MOR04975 IgG1 (antibody, V domains shown)
VH: B1 VH with G84Q
VL: B1 VL with N18R
B13: MOR04977 IgG1 (antibody, V domains shown)
VH: B1 VH with G50F, R52E, A53P, Q55W, S56R, Y58G, D61H, P65S, G84Q
VL: B1 VL with N18R, E91S, F92S, G93N, I94P
B14: MOR04624 IgG1 (antibody, V domains shown)
VH: B4 VH
VL: B1 VL with N18R, T84V, E91S, F92D, G93Q, I94S, Q95Y
notes: Human IgG1 kappa (MorphoSys HuCAL IgG Vector Kit); also called IgG1 MOR04624
B15: MOR04055 IgG (antibody, V domains shown)
VH: QVQLVESGGGLVQPGGSLRLSCAASGFTFSNYAMNWVRQAPGKGLEWVSRISYSGSDTYYADSVKGRFTISRDNSKNTLYLQMNSLRAEDTAVYYCAREGEFGFMYSTLVFDSWGQGTLVTVSS
VL: B9 VL with S88G, Y92L, S93T, S94N, D95T
B16: MOR04055 Fab (Fab, V domains shown)
VH: B15 VH
VL: B9 VL with S88G, Y92L, S93T, S94N, D95T

Each binder was assayed against T1, human α5β1 integrin (human, UniProt P08648 42-1049; P05556 21-798) (assay: cell-based or functional assay).
T1 sequence (P08648 42-1049, chain 1 of 2): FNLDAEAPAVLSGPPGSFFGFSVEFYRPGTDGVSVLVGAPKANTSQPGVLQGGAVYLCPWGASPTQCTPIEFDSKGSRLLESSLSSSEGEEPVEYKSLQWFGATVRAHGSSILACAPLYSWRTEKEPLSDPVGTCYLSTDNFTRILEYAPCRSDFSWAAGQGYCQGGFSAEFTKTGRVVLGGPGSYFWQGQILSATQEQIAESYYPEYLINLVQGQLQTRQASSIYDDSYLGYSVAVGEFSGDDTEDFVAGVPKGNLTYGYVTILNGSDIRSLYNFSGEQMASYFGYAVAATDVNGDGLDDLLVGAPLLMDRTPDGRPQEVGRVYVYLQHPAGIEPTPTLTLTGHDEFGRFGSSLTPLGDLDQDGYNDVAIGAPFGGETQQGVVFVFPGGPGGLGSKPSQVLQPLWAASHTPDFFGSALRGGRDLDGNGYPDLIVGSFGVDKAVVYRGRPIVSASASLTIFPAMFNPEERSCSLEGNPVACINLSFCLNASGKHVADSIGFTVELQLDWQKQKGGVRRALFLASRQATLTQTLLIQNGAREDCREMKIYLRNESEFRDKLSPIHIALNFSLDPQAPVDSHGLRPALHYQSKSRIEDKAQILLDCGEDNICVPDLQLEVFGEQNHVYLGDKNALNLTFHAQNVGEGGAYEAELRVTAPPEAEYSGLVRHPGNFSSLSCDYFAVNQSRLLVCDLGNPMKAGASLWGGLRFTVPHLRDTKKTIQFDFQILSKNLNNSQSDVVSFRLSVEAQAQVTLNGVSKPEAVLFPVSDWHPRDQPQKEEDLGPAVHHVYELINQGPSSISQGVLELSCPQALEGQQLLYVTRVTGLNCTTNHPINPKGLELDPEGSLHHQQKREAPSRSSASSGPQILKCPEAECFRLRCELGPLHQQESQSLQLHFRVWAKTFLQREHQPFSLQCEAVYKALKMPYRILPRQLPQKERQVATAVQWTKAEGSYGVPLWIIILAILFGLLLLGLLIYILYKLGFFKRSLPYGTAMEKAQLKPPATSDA
T1 sequence (P05556 21-798, chain 2 of 2): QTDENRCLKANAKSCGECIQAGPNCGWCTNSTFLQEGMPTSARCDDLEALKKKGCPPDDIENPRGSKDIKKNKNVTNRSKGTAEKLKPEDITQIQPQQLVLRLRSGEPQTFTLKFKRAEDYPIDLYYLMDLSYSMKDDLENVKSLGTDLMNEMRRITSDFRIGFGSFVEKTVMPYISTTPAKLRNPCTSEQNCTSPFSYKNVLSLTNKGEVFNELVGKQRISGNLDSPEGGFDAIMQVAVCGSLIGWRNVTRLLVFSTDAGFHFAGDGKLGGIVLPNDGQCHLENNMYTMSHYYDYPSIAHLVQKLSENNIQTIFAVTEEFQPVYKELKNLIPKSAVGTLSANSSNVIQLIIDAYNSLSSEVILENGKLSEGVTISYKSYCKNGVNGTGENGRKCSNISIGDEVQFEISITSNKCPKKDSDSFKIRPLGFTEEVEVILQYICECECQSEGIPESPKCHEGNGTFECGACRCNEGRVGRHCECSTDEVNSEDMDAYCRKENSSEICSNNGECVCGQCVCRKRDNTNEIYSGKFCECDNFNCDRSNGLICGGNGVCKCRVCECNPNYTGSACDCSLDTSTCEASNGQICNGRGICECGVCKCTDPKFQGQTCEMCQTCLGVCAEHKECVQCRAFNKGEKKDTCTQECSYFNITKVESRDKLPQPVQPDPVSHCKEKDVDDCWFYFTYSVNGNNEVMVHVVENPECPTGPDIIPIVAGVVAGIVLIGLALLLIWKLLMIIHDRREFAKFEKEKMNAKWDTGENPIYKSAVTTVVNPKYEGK

IC50, transwell migration of HUVEC towards fibronectin [µg/mL]	Binder
1.5	B1
1	B2
1	B3

Biological target: T1, human α5β1 integrin
Assay: cell-based or functional assay
Remark: another data set of the same source

IC50, XTT-proliferation assay on HUVEC	Binder
11.2 µg/ml and 225 nM	B4
0.06 µg/ml and 1.2 nM	B5
0.09 µg/ml and 1.9 nM	B6
0.09 µg/ml and 1.8 nM	B7
0.09 µg/ml and 1.8 nM	B8
0.21 µg/ml and 4.3 nM	B9

Biological target: T1, human α5β1 integrin
Assay: cell-based or functional assay
Remark: another data set of the same source

EC50, inhibition of HUVEC adhesion to fibronectin	Binder
0.4 µg/ml and 2.7 nM	B10
0.5 µg/ml and 3.3 nM	B11
0.33 µg/ml and 2 nM	B12
0.4 µg/ml and 2.6 nM	B13

What follows are binders tested against T2, β1-integrin chain on HT29 wt cells (α5-chain negative) (human, UniProt P05556 21-798) (assay: FACS, HT29 cells (α5-chain negative)).
T2 construct: whole, on cells; Negative cell control: β1 present at high density, α5 absent
T2 sequence (P05556 21-798): as the sequence (P05556 21-798, chain 2 of 2) above

binding result	Binder
no binding	B14
no binding	B11
no binding	B12
no binding	B13

These binders were tested against T1, human α5β1 integrin (assay: FACS titration on α5β1-positive HUVEC cells, IgG).

Kd [nM]	Binder
3.1	B14
0.5	B15

What follows are binders tested against T1, human α5β1 integrin (assay: FACS titration on α5β1-positive HUVEC cells, monovalent Fab).

Kd [nM]	Binder
7.5	B4
0.9	B16

The binders below were run against T2, β1-integrin chain on HT29 wt cells … (assay: FACS on HT29 wt cells, labelled secondary antibody).
Procedure: Affinity matured IgG antibodies were incubated at 10 μg/mL with 5×10⁵ HT29 wt and HT29α5 cells. Specifically bound antibodies were detected with a Cy3-labelled secondary antibody. Upper panel: IIA1 incubated with HT29 wt (left) or HT29α5-cells (right), lower panel: IgG1 MOR04974. The fluorescence shift indicates specific binding to α5 integrin and was found for MOR04975, MOR04977, MOR04985 and MOR04624 (grey area). Antibody isotype controls are negative (black lines (b)). Our anti-integrin antibodies bind to α5-chain transfected cells with the same specificity as the reference antibody IIA1.
Affinity matured antibodies of the IgG-format were tested for their binding specificity by FACS analysis on HT29 wt vs. HT29α5 cells. HT29 wt cells are α5-negative but do contain the β1-integrin chain. HT29α5 but not the HT29 wt cells are specifically recognized by the IgG1-anti-integrin antibodies and the reference antibody IIA1 as indicated by the fluorescence shift. (FIG. 12).

binding result	Binder
no binding (tested: 10 µg/mL)	B10

What follows are binders tested against T2, β1-integrin chain on HT29 wt cells … (assay: immunoprecipitation from NP40 lysate of surface-biotinylated HT29 wt cells; streptavidin-AP blot).
Procedure: Surface-biotinylated NP40-lysates of HT29α5 and HT29 wt were incubated with Fab coupled to magnetic Dyna beads. The immunoprecipitates were transferred to PVDF-membranes and analysed with streptavidin alkaline phosphatase (AP).
IIA1 was used as a reference antibody. After intensive washing the precipitates were boiled in SDS-PAGE sample buffer under reducing conditions, blotted to PVDF-membranes and probed with streptavidine-AP. All anti-α5β1 integrin antibodies specifically precipitated a protein double kband of […] which corresponds to the expected molecular weight of the integrin chains α5 and β1 (FIG. 11) and was not found in the HT29 wt cell lysate. The same double band was found with IIA1.

binding result	Binder
no binding	B5
no binding	B6
no binding	B7
no binding	B8
no binding	B9

Reference: patent US20090081207A1 (published 2009)
